Measured values as given in US20240199746A1 (published 2024).
Where a chain is given by its changes, count along the chain named.

B1: HC-S103D (antibody, V domains shown)
VH: EVQLVQSGAEVKKPGATVKISCKVSGYSFTGHTMNWIRQPPGKGLEWIGLIKPSNGGTSYNQKFKGRVTISADKSISTAYLQWSSLKASDTAMYYCAHGHYEDYFAMDYWGQGTLVTVSS
VL: DIQMTQSPSSLSASVGDRVTITCKASQDVSSAVAWYQQKPGQAPRLLIYWASTRHTGVPSRFSGSGSGTEFTLTISSLQPDDFATYYCQEHFSTPLTFGQGTKVEIK
notes: CPE single point mutant
B2: HC-S103Q (antibody, V domains shown)
VH: B1 VH with D103Q
VL: B1 VL
notes: CPE single point mutant
B3: HC-T030A (antibody, V domains shown)
VH: B1 VH with T30A, D103S
VL: B1 VL
notes: CPE single point mutant
B4: HC-T033I (antibody, V domains shown)
VH: B1 VH with T33I, D103S
VL: B1 VL
notes: CPE single point mutant
B5: HC-Y101N (antibody, V domains shown)
VH: B1 VH with Y101N, D103S
VL: B1 VL
notes: CPE single point mutant
B6: HC-Y104P (antibody, V domains shown)
VH: B1 VH with D103S, Y104P
VL: B1 VL
notes: CPE single point mutant
B7: LC-A032L (antibody, V domains shown)
VH: B1 VH with D103S
VL: B1 VL with A32L
notes: CPE single point mutant
B8: LC-A032M (antibody, V domains shown)
VH: B1 VH with D103S
VL: B1 VL with A32M
notes: CPE single point mutant
B9: LC-A034D (antibody, V domains shown)
VH: B1 VH with D103S
VL: B1 VL with A34D
notes: CPE single point mutant
B10: LC-A034N (antibody, V domains shown)
VH: B1 VH with D103S
VL: B1 VL with A34N
notes: CPE single point mutant
B11: LC-A034Q (antibody, V domains shown)
VH: B1 VH with D103S
VL: B1 VL with A34Q
notes: CPE single point mutant
B12: LC-A051I (antibody, V domains shown)
VH: B1 VH with D103S
VL: B1 VL with A51I
notes: CPE single point mutant
B13: LC-A051N (antibody, V domains shown)
VH: B1 VH with D103S
VL: B1 VL with A51N
notes: CPE single point mutant
B14: LC-A051P (antibody, V domains shown)
VH: B1 VH with D103S
VL: B1 VL with A51P
notes: CPE single point mutant
B15: LC-F092C (antibody, V domains shown)
VH: B1 VH with D103S
VL: B1 VL with F92C
notes: CPE single point mutant
B16: LC-F092D (antibody, V domains shown)
VH: B1 VH with D103S
VL: B1 VL with F92D
notes: CPE single point mutant
B17: LC-F092E (antibody, V domains shown)
VH: B1 VH with D103S
VL: B1 VL with F92E
notes: CPE single point mutant
B18: LC-F092G (antibody, V domains shown)
VH: B1 VH with D103S
VL: B1 VL with F92G
notes: CPE single point mutant
B19: LC-F092N (antibody, V domains shown)
VH: B1 VH with D103S
VL: B1 VL with F92N
notes: CPE single point mutant
B20: LC-F092S (antibody, V domains shown)
VH: B1 VH with D103S
VL: B1 VL with F92S
notes: CPE single point mutant
B21: LC-H091C (antibody, V domains shown)
VH: B1 VH with D103S
VL: B1 VL with H91C
notes: CPE single point mutant
B22: LC-H091L (antibody, V domains shown)
VH: B1 VH with D103S
VL: B1 VL with H91L
notes: CPE single point mutant
B23: LC-H091S (antibody, V domains shown)
VH: B1 VH with D103S
VL: B1 VL with H91S
notes: CPE single point mutant
B24: LC-H091T (antibody, V domains shown)
VH: B1 VH with D103S
VL: B1 VL with H91T
notes: CPE single point mutant
B25: LC-H091V (antibody, V domains shown)
VH: B1 VH with D103S
VL: B1 VL with H91V
notes: CPE single point mutant
B26: LC-H091Y (antibody, V domains shown)
VH: B1 VH with D103S
VL: B1 VL with H91Y
notes: CPE single point mutant
B27: LC-P095A (antibody, V domains shown)
VH: B1 VH with D103S
VL: B1 VL with P95A
notes: CPE single point mutant
B28: LC-P095C (antibody, V domains shown)
VH: B1 VH with D103S
VL: B1 VL with P95C
notes: CPE single point mutant
B29: LC-P095D (antibody, V domains shown)
VH: B1 VH with D103S
VL: B1 VL with P95D
notes: CPE single point mutant
B30: LC-P095E (antibody, V domains shown)
VH: B1 VH with D103S
VL: B1 VL with P95E
notes: CPE single point mutant
B31: LC-P095H (antibody, V domains shown)
VH: B1 VH with D103S
VL: B1 VL with P95H
notes: CPE single point mutant
B32: LC-P095K (antibody, V domains shown)
VH: B1 VH with D103S
VL: B1 VL with P95K
notes: CPE single point mutant
B33: LC-P095S (antibody, V domains shown)
VH: B1 VH with D103S
VL: B1 VL with P95S
notes: CPE single point mutant

What follows are binders tested against T1, Ax1 protein, extracellular domain (human, UniProt P30530 26-451) (assay: ELISA, mutant diluted 1:3).
T1 construct: extracellular domain; also called Axl; Ark
T1 sequence (looked up): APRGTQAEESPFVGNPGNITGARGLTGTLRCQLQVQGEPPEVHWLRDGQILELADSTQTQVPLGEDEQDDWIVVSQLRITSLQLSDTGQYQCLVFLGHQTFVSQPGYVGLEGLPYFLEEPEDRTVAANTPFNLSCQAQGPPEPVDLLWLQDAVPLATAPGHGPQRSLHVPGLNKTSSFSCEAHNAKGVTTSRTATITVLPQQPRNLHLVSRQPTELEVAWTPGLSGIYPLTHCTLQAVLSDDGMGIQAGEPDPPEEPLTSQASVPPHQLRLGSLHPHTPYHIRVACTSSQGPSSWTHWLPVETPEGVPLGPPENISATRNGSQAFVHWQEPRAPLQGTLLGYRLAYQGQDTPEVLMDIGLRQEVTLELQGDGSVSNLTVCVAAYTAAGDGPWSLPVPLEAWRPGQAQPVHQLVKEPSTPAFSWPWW
Description: (§1) The DNA encoding the wild-type antibody was evolved to generate a mutant antibody library using Comprehensive Positional Evolution (CPE), which each position in the template antibody is randomized one at a time. Each mutant antibody in the library has only one single point mutation. The mutant antibodies in the library were generated by simultaneously screening for selective binding affinity to Ax1 at pH 6.0 over pH 7.4 by ELISA. Two mutant antibody dilutions were used: 1:3 and 1:9 dilutions.

Row | Binder | Affinity ELISA CPE mutant ratio (1:3, pH 6.0/7.4)
1 | B1 | 4.24
2 | B2 | 0.912
3 | B3 | 1.29
4 | B4 | 1.59
5 | B5 | 2.17
6 | B6 | 2.54
7 | B7 | 1.9
8 | B8 | 4.76
9 | B9 | 3
10 | B10 | 2.63
11 | B11 | 2
12 | B12 | 2.24
13 | B13 | 1.41
14 | B14 | 1.92
15 | B15 | 3.86
16 | B16 | 2.97
17 | B17 | 1.76

Row | Binder | Affinity ELISA CPE mutant ratio (1:3, pH 6.0/7.4)
18 | B18 | 3.69
19 | B19 | 1.93
20 | B20 | 3.18
21 | B21 | 4
22 | B22 | 2.17
23 | B23 | 1.76
24 | B24 | 3.78
25 | B25 | 4.13
26 | B26 | 3.93
27 | B27 | 2.52
28 | B28 | 2.35
29 | B29 | 3.95
30 | B30 | 7.12
31 | B31 | 2.5
32 | B32 | 3.84
33 | B33 | 2.84

What follows are binders tested against T1, Ax1 protein, extracellular domain (assay: ELISA, mutant diluted 1:9).
Description: as §1

Row | Binder | Affinity ELISA CPE mutant ratio (1:9, pH 6.0/7.4)
34 | B1 | 2.23
35 | B2 | 2.26
36 | B3 | 1.76
37 | B4 | 1
38 | B5 | 2.91
39 | B6 | 2.42
40 | B7 | 2.27
41 | B8 | 2.92
42 | B9 | 2.6
43 | B10 | 2.4
44 | B11 | 1.41
45 | B12 | 2.14
46 | B13 | 2.2
47 | B14 | 1.57
48 | B15 | 4.58
49 | B16 | 2.94
50 | B17 | 2

Row | Binder | Affinity ELISA CPE mutant ratio (1:9, pH 6.0/7.4)
51 | B18 | 4.76
52 | B19 | 2
53 | B20 | 2.94
54 | B21 | 3.02
55 | B22 | 2.44
56 | B23 | 1.34
57 | B24 | 3.7
58 | B25 | 1.17
59 | B26 | 5.13
60 | B27 | 2.99
61 | B28 | 2.63
62 | B29 | 2.89
63 | B30 | 7.51
64 | B31 | 2.75
65 | B32 | 3.47
66 | B33 | 3.51
